We go through 4 molecules from patent CN114395042A (BEIJING COONOXIN ZONGCHENG SCIENCE AND TECH CO, dated 2022).

In one test the target is T1, hIL-33WT (human, UniProt O95760 112-270, limits assumed).
T1 sequence (looked up): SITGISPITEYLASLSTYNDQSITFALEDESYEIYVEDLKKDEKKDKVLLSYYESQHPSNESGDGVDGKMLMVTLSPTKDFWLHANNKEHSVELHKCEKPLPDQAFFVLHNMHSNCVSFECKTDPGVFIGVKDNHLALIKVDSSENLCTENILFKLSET
Put plainly: cell-based or functional assay.

For test [1], the target named is T2, 人IL33-his重组蛋白 (human, UniProt O95760 112-270).
T2 construct: range 112-270; also called human IL-33; not shown: his tag
T2 sequence (looked up): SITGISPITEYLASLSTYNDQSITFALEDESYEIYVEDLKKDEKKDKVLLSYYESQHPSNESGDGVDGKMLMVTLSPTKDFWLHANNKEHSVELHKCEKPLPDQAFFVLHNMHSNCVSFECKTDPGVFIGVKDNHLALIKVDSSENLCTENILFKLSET
Description: BLI (ForteBio), Example 3.

In test [2] the target is T2, 人IL33-his重组蛋白. Put plainly: BLI (ForteBio), antibody captured on AHC probe, IL33-his 15-60 nM in solution, 1:1 fit. Background: In BLI a coated tip is dipped into the sample, and binding shifts an interference pattern.

B1: h25D8H1L1 (antibody, human IgG1, kappa, V domains shown)
VH: QVQLVQSGAEVKKPGASVKLSCKTSGYTFTSYWIQWVRQAPGQGLEWIGEIFPGTGTTYYNQKFQGRATLTTDTSTTTAYMELSSLRSEDTAVYFCARRIRDYYGSNYFDYWGQGTTLTVSS
VL: DIQLTQSPSSMSASVGDRVTITCRASSSVSYMHWFQQKPGKAPKLWIYRTSNLQSGVPSRFSGSGSGTDYTLTISSMQPEDFATYYCLQRSTYLFMFGQGTKLELKR
notes: also called 人源化抗体h25D8H1L1; hzVH1/hzVL1
A word on the Kd: it is the equilibrium constant for the complex coming apart. A high value points to a looser complex. In general, koff refers to the rate constant with which the complex falls apart. A high value points to a short-lived complex. One may read the kon as the rate constant with which the complex forms. Lower therefore signals slow association. As for B1, the “IC50 of inhibition of IL-33-stimulated IL-5 production by KU812 cells” value in the test with hIL-33WT is 0.677 µg/mL. In the test with 人IL33-his重组蛋白 [1], this molecule yielded a Kd of 610 pM, a koff of 0.000366 s⁻¹ and a kon of 600000 M⁻¹ s⁻¹.

B2: ch25D8 (antibody, human IgG1, kappa, V domains shown)
VH: QVQLQQSGTELVKPGASVKLSCKTSGYTFTSYWIQWVKQRPGQGLGWIGEIFPGTGTTYYNEKFKGKATLTTDTSSTTAYMQLSSLTSEDSAVYFCARRIRDYYGSNYFDYWGQGTTLTVSS
VL: QIVLTQSPAIMSASPGEKVTITCSASSSVSYMHWFQQKPGTSPKLWIYRTSNLASGVPDRFSGSGSGTSYSLTISRMEAEDAATYYCLQRSTYLFMFGAGTKLELKR
notes: also called 嵌合抗体ch25D8; 25D8分子的嵌合抗体
B2: in the test with 人IL33-his重组蛋白 [2], the Kd came out at 900 pM, the koff came to 7.53e-05 s⁻¹ and the kon was 83600 M⁻¹ s⁻¹. In the test with 人IL33-his重组蛋白 [1], the Kd was 617 pM, the koff was 0.000472 s⁻¹ and the kon was 766000 M⁻¹ s⁻¹.

B3: ch25H12 (antibody, human IgG1, kappa, V domains shown)
VH: EVQLQQSGAELVKPGASVKLSCTASGFNIKDTYIHWVKQRPEQGLEWIGRIDPTADNTKYHPKFQGKATLTADTSSNTAYLQLSSLTSEDTAVYFCARGSSYALDYWGQGTSVTVSS
VL: QIVLTQSPAIMSASPGEKVTITCSASSSVSYMHWFQQKPGTSPKLWIYRTSNLASGVPDRFSGSGSGTSYSLTISRMEAEDAATYYCQQRSSYLFMFGAGTKLELKR
notes: Human-mouse chimeric IgG1/kappa expressed in HEK293 and purified on Protein A; also called 嵌合抗体ch25H12
In the test with 人IL33-his重组蛋白 [2], B3 came in with a Kd of 77700 pM, a koff of 0.000619 s⁻¹ and a kon of 7970 M⁻¹ s⁻¹.

B4: ANB020 (antibody, V domains shown)
VH: QVQLMQSGAEVKKPGASVKVSCKASGYTFTSYWMHWVRQAPGQGLEWMGTIYPRNSNTDYNQKFKARVTMTRDTSTSTVYMELSSLRSEDTAVYYCARPLYYYLTSPPTLFWGQGTLVTVSS
VL: DIQLTQSPSFLSASVGDRVTLTCKASQDVGTAVAWTQQKPGKAPKLLIYWASTRHTGVPSRFSGSGSGTEFTLTISSLQPEDFATYYCQQAKTYPFTFGSGTKLEIK
notes: The variable regions were cloned into vectors holding human IgG1 light and heavy chain constant regions; also called 对照抗体ANB020; 对照抗体
Consider B4, for which the “IC50 of inhibition of IL-33-stimulated IL-5 production by KU812 cells” value with hIL-33WT is 5.82 µg/mL. In the test with 人IL33-his重组蛋白 [2], the Kd stood at 6700 pM, the koff was 0.000419 s⁻¹ and the kon stood at 62500 M⁻¹ s⁻¹.
